Reference: article PMC4164519

Target: Neu4 with a C-terminal TAP (SBP/CBP) tag expressed in COS 7 cells (human) (UniProt Q8WWR8)
Assay: SEC; FPLC size exclusion chromatography of the purified enzyme; apparent mass

stoichiometry N: 2
Substance: Neu4 with a C-terminal TAP (SBP/CBP) tag expressed in COS 7 cells (from UniProt Q8WWR8 1-484) (enzyme)
